# Measured values as given in US20090104178A1.
# How the values were obtained:
# Assay in all cases: SPR (BIAcore X), E12 thiol-coupled to the chip, chemokine injected
# mCCL27 (mouse) = mCCL27 (mouse) (UniProt Q9Z1X0)
# mCCL25 (mouse) = mCCL25 (mouse) (UniProt O35903)
# mCXCL14 (mouse) = mCXCL14 (mouse) (UniProt Q9WUQ5)
# mCCL21 (mouse) = mCCL21 (mouse) (UniProt P84444)
# mCXCL11 (mouse) = mCXCL11 (mouse) (UniProt Q9JHH5)
# mCXCL13 (mouse) = mCXCL13 (mouse) (UniProt O55038)
# Chain of mCXCL13 (mouse) (O55038 22-109 limits assumed): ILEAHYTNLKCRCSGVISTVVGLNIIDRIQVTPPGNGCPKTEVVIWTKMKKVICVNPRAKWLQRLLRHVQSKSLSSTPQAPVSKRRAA
# Chain of mCXCL14 (mouse) (Q9WUQ5 23-99 limits assumed): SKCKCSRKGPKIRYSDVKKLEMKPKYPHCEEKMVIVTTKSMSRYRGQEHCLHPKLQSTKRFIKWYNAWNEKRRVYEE
# Chain of mCCL27 (mouse) (Q9Z1X0 26-120 limits assumed): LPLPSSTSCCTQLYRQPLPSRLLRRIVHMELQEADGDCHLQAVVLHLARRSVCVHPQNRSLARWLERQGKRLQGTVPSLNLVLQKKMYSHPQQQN
# Chain of mCCL21 (mouse) (P84444 24-133): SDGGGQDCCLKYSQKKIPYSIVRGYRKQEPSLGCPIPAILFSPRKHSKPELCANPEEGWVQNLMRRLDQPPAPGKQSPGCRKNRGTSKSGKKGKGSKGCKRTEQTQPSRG
# Chain of mCXCL11 (mouse) (Q9JHH5 22-100 limits assumed): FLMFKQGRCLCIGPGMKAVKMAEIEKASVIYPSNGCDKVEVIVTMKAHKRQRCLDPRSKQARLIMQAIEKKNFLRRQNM
# Chain of mCCL25 (mouse) (O35903 24-144 limits assumed): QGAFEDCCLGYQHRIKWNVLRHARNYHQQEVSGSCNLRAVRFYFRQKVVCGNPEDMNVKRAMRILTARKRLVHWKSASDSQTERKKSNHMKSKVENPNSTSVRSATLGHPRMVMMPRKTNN
substance,measurement,setting,value
Purified EV E12 protein,Kd,mCCL27 (mouse),2 nM
same,Kd,mCCL25 (mouse),0.7 nM
same,Kd,mCXCL14 (mouse),1.5 nM
same,Kd,mCCL21 (mouse),0.5 nM
same,Kd,mCXCL11 (mouse),1 nM
same,Kd,mCXCL13 (mouse),1.5 nM
